Laboratory results taken from paper PMC9534319 (2022).

Molecular target: h219 (VH9/VK2)
Assay: BLI

B1: his tagged human LAIR1 recombinant protein (receptor)
chain: QEEDLPRPSISAEPGTVIPLGSHVTFVCRGPVGVQTFRLERDSRSTYNDTEDVSQASPSESEARFRIDSVREGNAGLYRCIYYKPPKWSEQSDYLELLVKESSGGPDSPDTEPGSSAGPTQRPSDNSHNEHAPASQGLKAEHLY
Question: For B1, which Kd is on record?
Answer: 0.66 nM
